Experimental data published in paper PMC4924860, “Environmental Factors Modulating the Stability and Enzymatic Activity of the Petrotoga mobilis Esterase (PmEst)” (PLoS ONE, 2016).

B1: PmEst (Petrotoga mobilis SJ95) (protein)
chain: MALLEVNFMSRSLMRKVPIMVVLPMDKANLSGKSEITDNDNNTFKTLYLLHGIFGNYSDWVSETRIQRLAEGRNLAVVMPSGENSFYLDQPESGNFYGEFIGRELVNITRKMFPLSRKKEDTFIAGLSMGGYGAIRNGLKYHETFGCVAGLSSALNFEQMLDESYQVIACKKSAFGDPKEAILSDKNPKVLVKNIKENPLGQFPKMYMACGTEDNLINSNRDFRDFLIENNVDLTYEEGPGAHTWEFWDTYIEKVLDWLPLKKPS
notes: synthetic gene, modified pET28a, N-terminal His6-SUMO fusion cut by SUMO protease; E. coli Rosetta (DE3); PFAM PF00756 esterase

Experiments:
[1] = target: Petrotoga mobilis esterase (PmEst) (Petrotoga mobilis); assay: SEC; Superdex 200 10/300 GL column, calibrated with carbonic anhydrase, ovalbumin, bovine serum albumin, conalbumin and aldolase; purified PmEst in aqueous solution
purified protein [2] = substrate: CC(=O)Oc1ccc([N+](=O)[O-])cc1; assay: purified protein; format: biochemical, Petrotoga mobilis; conditions: 10 mM sodium phosphate pH 7.4, 500 nM enzyme, acetonitrile from substrate stock, temperature of the kinetics not stated
purified protein [3] = substrate: CCCC(=O)Oc1ccc([N+](=O)[O-])cc1; assay: purified protein; format: biochemical, Petrotoga mobilis; conditions: 10 mM sodium phosphate pH 7.4, 500 nM enzyme, acetonitrile from substrate stock, temperature of the kinetics not stated

stoichiometry N [1] | Molecule | Km (purified protein [2]) | kcat (purified protein [2]) | kcat/Km (purified protein [2]) | Km (purified protein [3]) | kcat (purified protein [3]) | kcat/Km (purified protein [3])
3 | Petrotoga mobilis esterase (PmEst) (enzyme) | – | – | – | – | – | –
– | B1 | 1430 ± 170 µM | 29.2 ± 1.2 s⁻¹ | 20500 ± 1600 M⁻¹ s⁻¹ | 160 ± 10 µM | 14.1 ± 0.29 s⁻¹ | 88100 ± 6000 M⁻¹ s⁻¹
